From doi:10.1101/2021.02.03.429618 (bioRxiv, 2021) come the findings set out here.

In this experiment the target is T1, human 2-oxoglutarate dehydrogenase (hE1o) (human, UniProt Q02218 41-1023).
T1 sequence (looked up): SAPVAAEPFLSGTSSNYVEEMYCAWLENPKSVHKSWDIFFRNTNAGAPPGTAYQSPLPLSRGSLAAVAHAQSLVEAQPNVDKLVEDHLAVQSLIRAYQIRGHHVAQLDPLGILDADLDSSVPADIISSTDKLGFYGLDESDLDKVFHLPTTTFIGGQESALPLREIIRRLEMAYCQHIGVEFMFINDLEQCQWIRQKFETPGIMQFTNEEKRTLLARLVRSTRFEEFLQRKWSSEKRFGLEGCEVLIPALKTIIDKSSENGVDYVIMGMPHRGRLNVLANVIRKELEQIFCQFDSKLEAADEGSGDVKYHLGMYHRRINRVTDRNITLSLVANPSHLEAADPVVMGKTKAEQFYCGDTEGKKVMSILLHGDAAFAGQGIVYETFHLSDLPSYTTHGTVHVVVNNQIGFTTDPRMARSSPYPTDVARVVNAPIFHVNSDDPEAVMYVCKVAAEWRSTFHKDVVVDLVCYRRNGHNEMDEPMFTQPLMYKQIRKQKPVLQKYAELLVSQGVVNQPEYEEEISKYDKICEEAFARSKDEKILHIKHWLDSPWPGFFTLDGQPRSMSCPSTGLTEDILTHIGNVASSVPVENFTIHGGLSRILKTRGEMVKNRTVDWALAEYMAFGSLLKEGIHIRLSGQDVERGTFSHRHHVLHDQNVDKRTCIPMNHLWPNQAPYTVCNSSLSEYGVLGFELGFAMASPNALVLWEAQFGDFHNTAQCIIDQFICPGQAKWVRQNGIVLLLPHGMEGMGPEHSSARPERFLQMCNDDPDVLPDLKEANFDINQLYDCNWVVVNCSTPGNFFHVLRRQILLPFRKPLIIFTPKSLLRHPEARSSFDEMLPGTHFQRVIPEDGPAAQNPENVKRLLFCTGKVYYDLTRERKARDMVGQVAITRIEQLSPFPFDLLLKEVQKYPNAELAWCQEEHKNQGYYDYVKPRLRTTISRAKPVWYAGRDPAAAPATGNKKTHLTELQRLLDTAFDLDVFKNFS
The experiment is described as follows: cross-linking.

B1: human dihydrolipoyl succinyltransferase (hE2o) (enzyme, UniProt P36957 68-453, looked up)
chain: DDLVTVKTPAFAESVTEGDVRWEKAVGDTVAEDEVVCEIETDKTSVQVPSPANGVIEALLVPDGGKVEGGTPLFTLRKTGAAPAKAKPAEAPAAAAPKAEPTAAAVPPPAAPIPTQMPPVPSPSQPPSGKPVSAVKPTVAPPLAEPGAGKGLRSEHREKMNRMRQRIAQRLKEAQNTCAMLTTFNEIDMSNIQEMRARHKEAFLKKHNLKLGFMSAFVKASAFALQEQPVVNAVIDDTTKEVVYRDYIDISVAVATPRGLVVPVIRNVEAMNFADIERTITELGEKARKNELAIEDMDGGTFTISNGGVFGSLFGTPIINPPQSAILGMHGIFDRPVAIGGKVEVRPMMYVALTYDHRLIDGREAVTFLRKIKAAVEDPRVLLLDL
Regarding B1, the binding result is on record as “binds”.
